These results are taken from paper PMC3690481 (2013).

Where two headings read alike, the source gives them in different places.

The target in experiment [1] is T1, FlAsH-tagged Met1-diUb (UniProt P0CG48 1-76; P0CG48 1-71, Lumio Green (FlAsH) on the C-terminal WCCPGCC motif). The experiment in a line: FP.
For experiment [2], the target named is T1, FlAsH-tagged Met1-diUb. The experiment in a line: FP. This is another data set of the same source.

B1: NEMO UBAN domain (domain or fragment)
chain: GMQLEDLKQQLQQAEEALVAKQEVIDKLKEEAEQHKIVMETVPVLKAQADIYKADFQAERQAREKLAEKKELLQEQLEQLQREYSKLKAS
As for B1, the Kd – broadly, the free concentration of one partner at which half of the binding sites on the other are occupied at equilibrium, for simple one-to-one binding – in experiment [1] was 3.7 µM.

B2: OTULIN C129A TQK100-102AAA (enzyme)
chain: MSRGTMPQPEAWPGASCAETPAREAAATARDGGKAAASGQPRPEMQCPAEHEEDMYRAADEIEKEKELLIHERGASEPRLSVAPEMDIMDYCKKEWRGNAAAATCMKMGYEEVSQKFTSIRRVRGDNYAALRATLFQAMSQAVGLPPWLQDPELMLLPEKLISKYNWIKQWKLGLKFDGKNEDLVDKIKESLTLLRKKWAGLAEMRTAEARQIACDELFTNEAEEYSLYEAVKFLMLNRAIELYNDKEKGKEVPFFSVLLFARDTSNDPGQLLRNHLNQVGHTGGLEQVEMFLLAYAVRHTIQVYRLSKYNTEEFITVYPTDPPKDWPVVTLIAEDDRHYNIPVRVCEETSL
On to B2, for which the affinity in experiment [2], expressed as Kd, was 36.1 µM.
